Source: patent US20020058276A1 (GOVERNING COUNCIL OF THE UNIVERSITY OF TORONTO, published 2002)

B1: PAMPΔ312-340 (other, not shown: small tags and cut ends)
chain: NSVERKIYIPLNKTAPCVRLLNATHQIGCQSSISGDTGVIHVVEKEEDLQWVLTDGPNPPYMVLLESKHFTRDLMEKLKGRTSRIAGLAVSLTKPSPASGFSPSVQCPNDGFGVYSNSYGPEFAHCREIQWNSLGNGLAYEDFSFPIFLLEDENETKVIKQCYQDHNLSQNGSAPTFPLCAMQLFSHMHAVISTATCMRRSSIQSTFSINPEIVCDPLSDYNVWSMLKPINTTGTLKPDDRVVVAATRLDSRSFFWNVAPGAESAVASFVTQLAAAEASRMVYDMEKGKFPVQLENVDSFVELGQVALRTSLELWMHTDPVSQKNESVRNQVEDLLATLEKSGAGVPAVILRRPNQSQPLPPSSLQRFLRARNISGVVLADHSGAFHNKYYQSIYDTAENINVSYPEWLSPEEDLNFVTDTAKALADVATVLGRALYELAGGTNFSDTVQADPQTVTRLLYGFLIKANNSWFQSILRQDLRSYLGDGPLQHYIAVSSPTNTTYVVQYALANLTGTVVNLTREQCQDPSKVPSENKDLYEYSWVQGPLHSNETDRLPRCVRSTARLARALSPAFELSQWSSTEYSTWTESRWKDIRARIFLIASKELELITLTVGFGILIFSLIVTYCINAKADVLFIAPREPGAVSY
B2: PAMPΔ312-369 (other, not shown: small tags and cut ends)
chain: NSVERKIYIPLNKTAPCVRLLNATHQIGCQSSISGDTGVIHVVEKEEDLQWVLTDGPNPPYMVLLESKHFTRDLMEKLKGRTSRIAGLAVSLTKPSPASGFSPSVQCPNDGFGVYSNSYGPEFAHCREIQWNSLGNGLAYEDFSFPIFLLEDENETKVIKQCYQDHNLSQNGSAPTFPLCAMQLFSHMHAVISTATCMRRSSIQSTFSINPEIVCDPLSDYNVWSMLKPINTTGTLKPDDRVVVAATRLDSRSFFWNVAPGAESAVASFVTQLAAAEALRTSLELWMHTDPVSQKNESVRNQVEDLLATLEKSGAGVPAVILRRPNQSQPLPPSSLQRFLRARNISGVVLADHSGAFHNKYYQSIYDTAENINVSYPEWLSPEEDLNFVTDTAKALADVATVLGRALYELAGGTNFSDTVQADPQTVTRLLYGFLIKANNSWFQSILRQDLRSYLGDGPLQHYIAVSSPTNTTYVVQYALANLTGTVVNLTREQCQDPSKVPSENKDLYEYSWVQGPLHSNETDRLPRCVRSTARLARALSPAFELSQWSSTEYSTWTESRWKDIRARIFLIASKELELITLTVGFGILIFSLIVTYCINAKADVLFIAPREPGAVSY

Biological target: wild type human presenilin 1 (PS1) (human, UniProt P49768 1-467)
Experiment: cell-based or functional assay

Binder	Aβ42/Aβ40 Ratio
B1	0.59 normalized to mock transfection (1.0)
B2	0.09 normalized to mock transfection (1.0)
